Values joined by “and” are separate entries in the source; they are usually repeats but may differ in a detail not shown here. Identical values can stand only once.

To fix the notation:
B1: Fructose-bisphosphate aldolase A, P00883 (parent)
chain: MPHSHPALTPEQKKELSDIAHRIVAPGKGILAADESTGSIAKRLQSIGTENTEENRRFYRQLLLTADDRVNPCIGGVILFHETLYQKADDGRPFPQVIKSKGGVVGIKVDKGVVPLAGTNGETTTQGLDGLSERCAQYKKDGADFAKWRCVLKIGEHTPSALAIMENANVLARYASICQQNGIVPIVEPEILPDGDHDLKRCQYVTEKVLAAVYKALSDHHIYLEGTLLKPNMVTPGHACTQKYSHEEIAMATVTALRRTVPPAVTGVTFLSGGQSEEEASINLNAINKCPLLKPWALTFSYGRALQASALKAWGGKKENLKAAQEEYVKRALANSLACQGKYTPSGQAGAAASESLFISNHAY

Variants of B1 are the subject of the data set. To be noted: Oryctolagus cuniculus; pH 7.4; Thermal; DSC; sodium phosphate 10 mM; transition: 3; reversible: yes; structure 1ADO; whole UniProt chain shown.

For orientation: Tm means the temperature at the midpoint of the melting transition. On to D129A, for which the melting temperature (Tm) turned out to be 46.8 °C; the “change of melting temperature, mutant - wild type (higher = more stable)” value (“change of melting temperature, mutant” below) is -11.9 °C; the “unfolding enthalpy (calorimetric)” value was 71 kcal/mol.
D129Q: the Tm is 45.9 °C and 47.1 °C; the “change of melting temperature, mutant” value is -9.8 °C and -11.6 °C; the “unfolding enthalpy (calorimetric)” value is 67 kcal/mol and 77 kcal/mol.
Take D129V: the midpoint of thermal melting (Tm) is 43.9 °C and 46.5 °C; the “change of melting temperature, mutant” value is -11.8 °C and -12.2 °C; the “unfolding enthalpy (calorimetric)” value was 91 kcal/mol and 78 kcal/mol.
Take D129G: the midpoint of thermal melting (Tm) was 44 °C and 46 °C; the “change of melting temperature, mutant” value is -11.7 °C and -12.7 °C; the “unfolding enthalpy (calorimetric)” value is 67 kcal/mol and 73 kcal/mol.
In the case of D129N, the Tm is 45.6 °C and 47 °C; the “change of melting temperature, mutant” value was -10.1 °C and -11.7 °C; the “unfolding enthalpy (calorimetric)” value was 80 kcal/mol and 83 kcal/mol.

These data come from FireProtDB (doi:10.1002/pro.5560030904).
